Experimental data published in US20240018526, “DEOXYRIBONUCLEIC ACID-BASED BIOSENSOR AND ASSOCIATED METHODS” (FACible BioDiagnostics LLC, published 2024).

Target: SARS-CoV-2 spike glycoprotein S1 (SARS-CoV-2, UniProt P0DTC2 P0DTC2:14-685)

B1: N6-D2-biotin aptamer (ssDNA)
DNA: CACGGTTCGAGCTGGTACTAAACTTCGCTAAACAACACGCAGCATTTCATCGGGTCCAAAAGGGGCTGCTCGGGATTGCGGATATGGACCCGTCAGCTTA
modifications: 5'-biotin (5BiosG), as SEQ ID NO 96
  binding result: binds
